According to patent US20130029902A1 (PHARIS BIOTECH, published 2013):

B1: ALB408-413 (peptide)
peptide: LVRYTK
notes: Synthetic fragment of human serum albumin
B2: ALB408-423 (peptide)
peptide: LVRYTKKVPQVSTPTL
notes: also called Human circulating antiviral albumin fragment; wild type peptide

What was measured:
EGFP-hCXCR4 [1] = target: T1, EGFP-hCXCR4 (human, UniProt P61073 1-352); experiment: competition with CXCL12-Tr on CXCR4 expressing HEK293 cells, FRET
Description: (§1) The CXCR4 receptor is stably transfected in Human Embryonic Kidney (HEK) cells as a fusion protein with the EGFP fluorescent protein fused to the extracellular amino-terminal part of the receptor (EGFP-CXCR4). The human chemokines CXCL12 and CXCL12-TexasRed were synthesized as described (Amara et al., 1999, JBC 274:23916-23925; Valenzuela-Fernandez, et al., 2001, JBC 276:26550-26558). Real-time fluorescence monitoring of ligand-receptor interactions was performed as followed: HEK293 cells expressing the fusion receptor, EGFP-hCXCR4, were harvested in phosphate-buffered saline supplemented with 5 mM EDTA, pH 7.4, centrifuged and resuspended in HEPES-bovine serum albumin buffer (10 mM HEPES, 137.5 mM NaCl, 1.25 mM MgCl2, 1.25 mM CaCl2, 6 mM KCl, 10 mM glucose, 0.4 mM NaH2PO4, 1% bovine serum albumin (w/v), pH 7.4) supplemented with protease inhibitors (40 μg/mL bestatin and bacitracin, 20 μg/mL phosphoramidon, 50 μg/mL chymostatin, and 1 μg/mL leupeptin). […] Time-based recordings of the fluorescence emitted at 510 nm (excitation at 470 nm) were performed at 21° C. using a spectrofluorimeter (fluorolog 2, Spex) and sampled every 0.3 s. Fluorescence binding measurements were initiated by adding at 30 seconds 100 nM of CXCL12-TR to 1 mL cell suspension. […] Then, CXCL12-TR (100 nM) was added and fluorescence was recorded until equilibrium was reached (300 sec). […]

EGFP-hCXCR4 [2] = target: T1, EGFP-hCXCR4; experiment: competition with 100 nM CXCL12-TR on HEK293 cells expressing EGFP-hCXCR4, FRET
Description: as §1

CXCR4 = CXCR4 (UniProt P61073 1-352, limits assumed); experiment: cell-based or functional assay

T1 sequence (P61073 whole entry, the tested form may be a part): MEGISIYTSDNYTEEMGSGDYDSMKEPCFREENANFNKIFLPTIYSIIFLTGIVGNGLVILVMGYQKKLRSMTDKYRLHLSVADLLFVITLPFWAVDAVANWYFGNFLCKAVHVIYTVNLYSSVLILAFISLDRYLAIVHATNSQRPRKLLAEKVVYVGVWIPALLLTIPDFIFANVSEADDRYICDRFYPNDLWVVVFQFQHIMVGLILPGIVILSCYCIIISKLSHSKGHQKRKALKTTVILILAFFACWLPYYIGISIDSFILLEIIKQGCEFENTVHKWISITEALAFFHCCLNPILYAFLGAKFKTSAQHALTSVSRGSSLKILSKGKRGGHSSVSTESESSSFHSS

Binder | Kd (EGFP-hCXCR4 [1]) [µM] | EC50 (EGFP-hCXCR4 [2]) [µM] | Ki (EGFP-hCXCR4 [2]) [µM] | IC50, HIV-1 NL4-3 infection of TZM-bl cells (fraction 31 from hemofiltrate) (CXCR4) [µg/mL] | IC50, X4 tropic HIV-1 and HIV-2 infection of TZM-bl cells (CXCR4) [µM] | mean IC50, infection of TZM-bl cells by X4-tropic HIV-1 variants (CXCR4) [µg/mL]
B1 | > 200 | – | – | – | – | –
B2 | – | 8 | 3 | 21.4 | 10 to 20 | 24.2
